Patent US20210032365A1 (Chugai, published 2021)

T1: Serum-derived human C1s (human, UniProt P09871 16-688)
T1 construct: The analyte was C1s purified from serum; also called hC1s
T1 sequence: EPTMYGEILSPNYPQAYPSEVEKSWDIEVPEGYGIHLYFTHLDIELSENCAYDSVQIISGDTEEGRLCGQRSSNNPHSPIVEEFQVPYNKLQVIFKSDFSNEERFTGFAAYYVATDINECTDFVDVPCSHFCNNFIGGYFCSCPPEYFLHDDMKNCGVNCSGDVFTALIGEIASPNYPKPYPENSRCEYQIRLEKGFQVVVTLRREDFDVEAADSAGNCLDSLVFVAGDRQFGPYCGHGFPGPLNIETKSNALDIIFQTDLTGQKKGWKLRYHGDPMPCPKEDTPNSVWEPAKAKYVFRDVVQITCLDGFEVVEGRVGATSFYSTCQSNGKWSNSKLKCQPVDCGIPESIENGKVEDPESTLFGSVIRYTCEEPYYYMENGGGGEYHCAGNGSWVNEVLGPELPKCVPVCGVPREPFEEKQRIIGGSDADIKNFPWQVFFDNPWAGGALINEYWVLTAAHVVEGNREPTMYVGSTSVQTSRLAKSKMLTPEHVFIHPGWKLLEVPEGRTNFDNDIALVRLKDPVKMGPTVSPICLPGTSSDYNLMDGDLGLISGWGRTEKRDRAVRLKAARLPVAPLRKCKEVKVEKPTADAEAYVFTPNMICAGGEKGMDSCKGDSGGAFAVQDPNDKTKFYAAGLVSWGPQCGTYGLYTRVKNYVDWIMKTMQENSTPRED

B1: IPN009VH2/IPN009VK3-SG136 (antibody, human IgG1, kappa)
heavy: EVMLVESGGGLVKPGGSLRLSCAASGFTFSNYAMSWVRQAPGKGLEWVATISSGGSHTYYLDSVKGRFTISRDNSKDTLYLQMNSLRAEDTALYYCARLFTGYAMDYWGQGTLVTVSSASTKGPSVFPLAPSSKSTSGGTAALGCLVKDYFPEPVTVSWNSGALTSGVHTFPAVLQSSGLYSLSSVVTVPSSSLGTQTYICNVNHKPSNTKVDKKVEPKSCDKTHTCPPCPAPELRRGPSVFLFPPKPKDTLMISRTPEVTCVVVDVSHEDPEVKFNWYVDGVEVHNAKTKPREEQYNSTYRVVSVLTVLHQDWLNGKEYKCKVSNKGLPSSIEKTISKAKGQPREPQVYTLPPSREEMTKNQVSLTCLVKGFYPSDIAVEWESNGQPENNYKTTPPVLDSDGSFFLYSKLTVDKSRWQQGNVFSCSVMHEALHNHYTQKSLSLSP
light: QIVLTQSPATLSLSPGERATLSCTASSSVSSSYLHWYQQKPGKAPKLWIYSTSNLASGVPSRFSGSGSGTDYTLTISSLQPEDFATYYCHQYYRLPPITFGQGTKLEIKRTVAAPSVFIFPPSDEQLKSGTASVVCLLNNFYPREAKVQWKVDNALQSGNSQESVTEQDSKDCTYSLSSTLTLSKADYEKHKVYACEVTHQGLSSPVTKSFNRGEC
notes: also called parent antibody
B2: IPN009VH2/IPN93L0021-SG136 (antibody, human IgG1, kappa, name in Kabat numbering)
heavy: EVMLVESGGGLVKPGGSLRLSCAASGFTFSNYAMSWVRQAPGKGLEWVATISSGGSHTYYLDSVKGRFTISRDNSKDTLYLQMNSLRAEDTALYYCARLFTGYAMDYWGQGTLVTVSSASTKGPSVFPLAPSSKSTSGGTAALGCLVKDYFPEPVTVSWNSGALTSGVHTFPAVLQSSGLYSLSSVVTVPSSSLGTQTYICNVNHKPSNTKVDKKVEPKSCDKTHTCPPCPAPELRRGPSVFLFPPKPKDTLMISRTPEVTCVVVDVSHEDPEVKFNWYVDGVEVHNAKTKPREEQYNSTYRVVSVLTVLHQDWLNGKEYKCKVSNKGLPSSIEKTISKAKGQPREPQVYTLPPSREEMTKNQVSLTCLVKGFYPSDIAVEWESNGQPENNYKTTPPVLDSDGSFFLYSKLTVDKSRWQQGNVFSCSVMHEALHNHYTQKSLSLSP
light: QIVLTQSPATLSLSPGERATLSCTASSSVSSSYLHWYQQKPGKAPKLWIYSTSNLASGVPSRFSGSGSGTDYTLTISSLQPEDFATYYCHQYHRLPPITFGQGTKLEIKRTVAAPSVFIFPPSDEQLKSGTASVVCLLNNFYPREAKVQWKVDNALQSGNSQESVTEQDSKDCTYSLSSTLTLSKADYEKHKVYACEVTHQGLSSPVTKSFNRGEC
notes: The substitution is numbered by Kabat
B3: IPN009VH2/IPN93L0023-SG136 (antibody, human IgG1, kappa, name in Kabat numbering)
heavy: EVMLVESGGGLVKPGGSLRLSCAASGFTFSNYAMSWVRQAPGKGLEWVATISSGGSHTYYLDSVKGRFTISRDNSKDTLYLQMNSLRAEDTALYYCARLFTGYAMDYWGQGTLVTVSSASTKGPSVFPLAPSSKSTSGGTAALGCLVKDYFPEPVTVSWNSGALTSGVHTFPAVLQSSGLYSLSSVVTVPSSSLGTQTYICNVNHKPSNTKVDKKVEPKSCDKTHTCPPCPAPELRRGPSVFLFPPKPKDTLMISRTPEVTCVVVDVSHEDPEVKFNWYVDGVEVHNAKTKPREEQYNSTYRVVSVLTVLHQDWLNGKEYKCKVSNKGLPSSIEKTISKAKGQPREPQVYTLPPSREEMTKNQVSLTCLVKGFYPSDIAVEWESNGQPENNYKTTPPVLDSDGSFFLYSKLTVDKSRWQQGNVFSCSVMHEALHNHYTQKSLSLSP
light: QIVLTQSPATLSLSPGERATLSCTASSSVSSSYLHWYQQKPGKAPKLWIYSTSNLASGVPSRFSGSGSGTDYTLTISSLQPEDFATYYCHQYYRHPPITFGQGTKLEIKRTVAAPSVFIFPPSDEQLKSGTASVVCLLNNFYPREAKVQWKVDNALQSGNSQESVTEQDSKDCTYSLSSTLTLSKADYEKHKVYACEVTHQGLSSPVTKSFNRGEC
notes: also called IPN00VH2/IPN93L0023-SG136
B4: IPN92H0033/IPN009VK3-SG136 (antibody, human IgG1, kappa)
heavy: EVMLVESGGGLVKPGGSLRLSCAASGFTFSNYAMSWVRQAPGKGLEWVATISSGGSHTYYLDSVKGRFTISRDNSKDTLYLQMNSLRAEDTALYYCARLFTGHAMDYWGQGTLVTVSSASTKGPSVFPLAPSSKSTSGGTAALGCLVKDYFPEPVTVSWNSGALTSGVHTFPAVLQSSGLYSLSSVVTVPSSSLGTQTYICNVNHKPSNTKVDKKVEPKSCDKTHTCPPCPAPELRRGPSVFLFPPKPKDTLMISRTPEVTCVVVDVSHEDPEVKFNWYVDGVEVHNAKTKPREEQYNSTYRVVSVLTVLHQDWLNGKEYKCKVSNKGLPSSIEKTISKAKGQPREPQVYTLPPSREEMTKNQVSLTCLVKGFYPSDIAVEWESNGQPENNYKTTPPVLDSDGSFFLYSKLTVDKSRWQQGNVFSCSVMHEALHNHYTQKSLSLSP
light: QIVLTQSPATLSLSPGERATLSCTASSSVSSSYLHWYQQKPGKAPKLWIYSTSNLASGVPSRFSGSGSGTDYTLTISSLQPEDFATYYCHQYYRLPPITFGQGTKLEIKRTVAAPSVFIFPPSDEQLKSGTASVVCLLNNFYPREAKVQWKVDNALQSGNSQESVTEQDSKDCTYSLSSTLTLSKADYEKHKVYACEVTHQGLSSPVTKSFNRGEC
notes: VH is IPN009VH2 with Y99H (Kabat)
B5: IPN009VH2/IPN93L0024-SG136 (antibody, human IgG1, kappa)
heavy: EVMLVESGGGLVKPGGSLRLSCAASGFTFSNYAMSWVRQAPGKGLEWVATISSGGSHTYYLDSVKGRFTISRDNSKDTLYLQMNSLRAEDTALYYCARLFTGYAMDYWGQGTLVTVSSASTKGPSVFPLAPSSKSTSGGTAALGCLVKDYFPEPVTVSWNSGALTSGVHTFPAVLQSSGLYSLSSVVTVPSSSLGTQTYICNVNHKPSNTKVDKKVEPKSCDKTHTCPPCPAPELRRGPSVFLFPPKPKDTLMISRTPEVTCVVVDVSHEDPEVKFNWYVDGVEVHNAKTKPREEQYNSTYRVVSVLTVLHQDWLNGKEYKCKVSNKGLPSSIEKTISKAKGQPREPQVYTLPPSREEMTKNQVSLTCLVKGFYPSDIAVEWESNGQPENNYKTTPPVLDSDGSFFLYSKLTVDKSRWQQGNVFSCSVMHEALHNHYTQKSLSLSP
light: QIVLTQSPATLSLSPGERATLSCTASSSVSSSYLHWYQQKPGKAPKLWIYSTSNLASGVPSRFSGSGSGTDYTLTISSLQPEDFATYYCHQYYRLHPITFGQGTKLEIKRTVAAPSVFIFPPSDEQLKSGTASVVCLLNNFYPREAKVQWKVDNALQSGNSQESVTEQDSKDCTYSLSSTLTLSKADYEKHKVYACEVTHQGLSSPVTKSFNRGEC
notes: VL is IPN009VK3 with P95H (Kabat)

Key:
[1] = biological target: T1, Serum-derived human C1s; experiment: SPR Biacore T200, 37 C, antibody captured on protein A/G, pH 5.8, 1.2 mM CaCl2
Method: (§1) The binding affinity of all histidine-substituted variants at pH 7.4 and pH 5.8 were determined at 37 degrees C. using Biacore T200 instrument (GE Healthcare). Recombinant Protein A/G (Pierce) was immobilized onto all flow cells of a CM4 sensor chip using amine coupling kit (GE Healthcare). Antibodies and analytes were prepared in 7(+) buffer (20 mM ACES, 150 mM NaCl, 1.2 mM CaCl2, 0.05% Tween 20, 0.005% NaN3, pH 7.4) or 5(+) buffer (20 mM ACES, 150 mM NaCl, 1.2 mM CaCl2), 0.05% Tween 20, 0.005% NaN3, pH 5.8). Each antibody was captured onto the sensor surface by protein A/G. Antibody capture levels were aimed at 200 resonance unit (RU). […] Sensor surface was regenerated each cycle with 10 mM Glycine-HCl pH 1.5. […] An additional dissociation phase at pH 5.8 was integrated immediately after the dissociation phase at pH 7.4. This dissociation rate in 5(+) buffer was determined by processing and fitting data using Scrubber 2.0 (BioLogic Software) curve fitting software.

[2] = biological target: T1, Serum-derived human C1s; experiment: SPR Biacore T200, 37 C, antibody captured on protein A/G, pH 7.4, 1.2 mM CaCl2
Method: as §1

[3] = biological target: T1, Serum-derived human C1s; experiment: SPR Biacore T200, 37 C, ratio of KD pH 5.8 / pH 7.4, 1.2 mM CaCl2
Method: as §1, with “software. […]” for “software.”

[4] = biological target: T1, Serum-derived human C1s; experiment: SPR Biacore T200, 37 C, ratio of dissociation rates pH 5.8 / pH 7.4, 1.2 mM CaCl2
Method: as §1

Row | Binder | koff [1] [s⁻¹] | kon [1] [M⁻¹ s⁻¹] | kon [2] [M⁻¹ s⁻¹] | KD (5.8+)/KD (7.4+) [3] | koff (5.8+ of 775+)/koff (7.4+) [4] | Kd [1] [nM] | Kd [2] [nM]
1 | B1 | 0.000162 | 360000 | 344000 | 0.4 | 0.2 | – | –
2 | B2 | 0.00126 | 290000 | 199000 | 1.5 | 1.9 | – | –
3 | B3 | 0.000818 | 330000 | 227000 | 0.9 | 1.1 | 2.48 | 2.77
4 | B4 | 0.000362 | 389000 | 377000 | 0.9 | 0.7 | – | –
5 | B5 | 0.000956 | 221000 | 180000 | 1.3 | 1.2 | – | –
